The test addresses rat APOBEC-1 (endogenous, rat liver nuclear extract and McArdle cells) (rat). Kind of test: cell-based or functional assay.

Regarding “rat ACF64 S154D (from UniProt Q923K9 1-586)”, the apoB mRNA editing in stable McArdle cell lines came out at 67%.

For the origin of these results see patent US20090075925A1, “Methods and Compositions Related to APOBEC-1 Expression” (priority 2006, published 2009).
